This note sets out measurements from paper doi:10.1101/2021.05.26.445185.

Assay in all cases: single-molecule FRET
Conditions in all cases: 5' m7GpppAm cap named for viral RNA; 3' poly(A) of unstated length

Series [1] deals with Cy5-eIF4E(S209D) (Homo sapiens).
Series [2] has as its target Cy5-eIF4E;eIF4G(557-1137);eIF4A (Homo sapiens;Homo sapiens;Homo sapiens) (UniProt Q04637).
For series [3], the system named is Cy5-eIF4E (Homo sapiens).
The target of series [4] is Cy5-eIF4E(S209D);eIF4G(557-1137);eIF4A (Homo sapiens;Homo sapiens;Homo sapiens) (UniProt Q04637).

The term Kd denotes the free concentration of one partner at which half of the binding sites on the other are occupied at equilibrium, for simple one-to-one binding. High values mean weaker binding, low ones tighter binding. capped polyadenylated SARS-CoV-2 5' UTR: the dissociation constant Kd in series [1] was found to be 62 nM; in series [2] it was 127 nM; in series [3], 74 nM; in series [4], 78 nM.
